Assay results published in the supplement of paper PMC10126150.
± gives the standard deviation of the averaged measurements.
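Note: ATP exposure 15 min at 22 °C before imaging.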

What follows are sequences tested on ATP (assay: switch fluorescence ratio, 500 uM ATP over buffer (Cy3 cluster intensity, sum of 5 cycles each) (fold (ratio)); higher = stronger signal-on switching upon ATP binding; sequences stand for … in TCGTCGGCAGCGTCAGATGTGTATAAGAGACAGTTTTTTTTTTTTTTTTTTTTTTTTT…TC). Conditions: aptamer strand: ATP DNA aptamer (quencher-CACCTGGGGGAGTATTGCGGAGGAAGG + anchor), 100 nM annealed; ATP concentration: 500 uM.
Summary of the method: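 Switching-strand clusters labelled with Cy3 on a modified Illumina MiSeq flow-cell were annealed to 100 nM quencher-labelled ATP aptamer, imaged in selection buffer, and re-imaged after 15 min with 500 uM ATP at 22 °C. This was done over five cycles with NaOH stripping and re-annealing in between. The fluorescence ratio is summed target-cycle over summed buffer-cycle Cy3 intensity per cluster, averaged per switch-domain sequence, excluding clusters outside 100-1000 RFU.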
CTGTGGGAAG showed a switch fluorescence ratio of 0.995 ± 0.056. With CTGTGGTATT the switch fluorescence ratio was 0.985 ± 0.018. CTGTGGTTGG was tested, and the switch fluorescence ratio was 0.981 ± 0.011. CTGTGTATGT gave a switch fluorescence ratio of 1.02 ± 0.061. CTGTGTGATG showed a switch fluorescence ratio of 0.991 ± 0.017. In the case of CTGTGTGCCT, the switch fluorescence ratio is reported as 0.995 ± 0.07. CTGTGTTCTT gave a switch fluorescence ratio of 0.9864 ± 0.0065. For CTGTTAATAG, the switch fluorescence ratio was 1.12 ± 0.027. Work on CTGTTAGTTG yielded a switch fluorescence ratio of 0.993 ± 0.019. Sequence CTGTTATGTG has a switch fluorescence ratio of 0.952 ± 0.015. For CTGTTCACGG, the switch fluorescence ratio was 1.017 ± 0.0092. CTGTTCCTTT showed a switch fluorescence ratio of 1.056 ± 0.0014. CTGTTGAGGG showed a switch fluorescence ratio of 1 ± 0.027. Sequence CTGTTGGGCC has a switch fluorescence ratio of 0.9949 ± 0.0047. CTGTTGGGTT was tested, and the switch fluorescence ratio was 0.997 ± 0.016. For CTGTTTATTT, the switch fluorescence ratio was 1.36 ± 0.54. Sequence CTTAAAGGCC has a switch fluorescence ratio of 0.984 ± 0.026. In the case of CTTAAAGTCG, the switch fluorescence ratio is reported as 0.981 ± 0.0073. CTTAAATCTG showed a switch fluorescence ratio of 0.974 ± 0.084. In the case of CTTAAATGAA, the switch fluorescence ratio is reported as 1.02 ± 0.036. CTTAAATTAA gave a switch fluorescence ratio of 0.989 ± 0.051. CTTAAATTCG gave a switch fluorescence ratio of 0.987 ± 0.018. With CTTAACCTTC the switch fluorescence ratio was 2.43 ± 0.31. CTTAACGGGA gave a switch fluorescence ratio of 0.99 ± 0.026. CTTAACTTAG was tested, and the switch fluorescence ratio was 1.047 ± 0.0015. CTTACAGGTT gave a switch fluorescence ratio of 0.99 ± 0.036. CTTACGGAGG showed a switch fluorescence ratio of 1.01 ± 0.015. Sequence CTTAGAATTG has a switch fluorescence ratio of 1.02 ± 0.012. With CTTAGATCTG the switch fluorescence ratio was 1 ± 0.027. CTTAGATGGT gave a switch fluorescence ratio of 0.975 ± 0.015. CTTAGATTTT was tested, and the switch fluorescence ratio was 0.988 ± 0.025. In the case of CTTAGGAAAG, the switch fluorescence ratio is reported as 0.98833 ± 0.00059. Work on CTTAGGCGGT yielded a switch fluorescence ratio of 1.038 ± 0.0062. Sequence CTTAGGGCGG has a switch fluorescence ratio of 0.957 ± 0.027. CTTAGGGTTG showed a switch fluorescence ratio of 0.999 ± 0.013. With CTTAGTATAT the switch fluorescence ratio was 1 ± 0.024. In the case of CTTAGTGTTC, the switch fluorescence ratio is reported as 0.992 ± 0.028. CTTATAATTG gave a switch fluorescence ratio of 0.9935 ± 0.00017. With CTTATACTGG the switch fluorescence ratio was 1.02 ± 0.011. CTTATAGGTG gave a switch fluorescence ratio of 1.14 ± 0.059. CTTATCTCTT was tested, and the switch fluorescence ratio was 1.02 ± 0.025. In the case of CTTATGACAG, the switch fluorescence ratio is reported as 0.988 ± 0.011. Sequence CTTATGGACT has a switch fluorescence ratio of 0.991 ± 0.033. For CTTATTAACT, the switch fluorescence ratio was 0.9954 ± 0.0069. CTTATTAAGC gave a switch fluorescence ratio of 1.05 ± 0.011. With CTTATTGTAG the switch fluorescence ratio was 0.964 ± 0.061. CTTATTTCCG showed a switch fluorescence ratio of 1.032 ± 0.0096. CTTATTTGGG showed a switch fluorescence ratio of 0.997 ± 0.031. With CTTCACACGT the switch fluorescence ratio was 1.016 ± 0.01. CTTCAGGGAA gave a switch fluorescence ratio of 1.01 ± 0.032. Work on CTTCGGCCTT yielded a switch fluorescence ratio of 0.976 ± 0.02. For CTTCGGTTCT, the switch fluorescence ratio was 1.02 ± 0.028. CTTCTAAGTC gave a switch fluorescence ratio of 1.004 ± 0.0097. CTTCTAGTCC gave a switch fluorescence ratio of 1.03 ± 0.028. In the case of CTTCTGTCGT, the switch fluorescence ratio is reported as 1.034 ± 0.0018. CTTCTTGGAG gave a switch fluorescence ratio of 0.967 ± 0.026. CTTGAAGATG showed a switch fluorescence ratio of 0.973 ± 0.065. Work on CTTGAAGGGA yielded a switch fluorescence ratio of 0.995 ± 0.029. Work on CTTGAATCGT yielded a switch fluorescence ratio of 0.987 ± 0.013. Work on CTTGACTGTG yielded a switch fluorescence ratio of 1.03 ± 0.011. Sequence CTTGAGACGG has a switch fluorescence ratio of 1.01 ± 0.017. For CTTGCCGGCG, the switch fluorescence ratio was 1.07 ± 0.03. For CTTGCGGCCT, the switch fluorescence ratio was 1.11 ± 0.15. Sequence CTTGCGGGCG has a switch fluorescence ratio of 0.982 ± 0.012. In the case of CTTGCGGGGA, the switch fluorescence ratio is reported as 1.0408 ± 0.00045. In the case of CTTGCTTTTT, the switch fluorescence ratio is reported as 0.948 ± 0.0035. CTTGGAATGT gave a switch fluorescence ratio of 1.01 ± 0.029. For CTTGGAGGA, the switch fluorescence ratio was 1.024 ± 0.0093. CTTGGAGGCG gave a switch fluorescence ratio of 1.01 ± 0.036. With CTTGGAGTTA the switch fluorescence ratio was 0.997 ± 0.025. In the case of CTTGGATGGG, the switch fluorescence ratio is reported as 0.9858 ± 0.0089. In the case of CTTGGATGTC, the switch fluorescence ratio is reported as 0.985 ± 0.03. For CTTGGGCATG, the switch fluorescence ratio was 0.988 ± 0.019. Sequence CTTGGGGAGC has a switch fluorescence ratio of 0.982 ± 0.07. CTTGGGGATG showed a switch fluorescence ratio of 0.997 ± 0.042. For CTTGGGGCTA, the switch fluorescence ratio was 1.03 ± 0.088. CTTGGGGCTC showed a switch fluorescence ratio of 0.9457 ± 0.0082. CTTGGGGGCG showed a switch fluorescence ratio of 1.01 ± 0.056. With CTTGGGGGTC the switch fluorescence ratio was 0.989 ± 0.014. CTTGGTAATA showed a switch fluorescence ratio of 1.062 ± 0.0066. CTTGGTAGGG gave a switch fluorescence ratio of 1.03 ± 0.051. CTTGGTCCCG showed a switch fluorescence ratio of 1.01 ± 0.011. In the case of CTTGGTGACG, the switch fluorescence ratio is reported as 1.09 ± 0.031. CTTGGTGGGA showed a switch fluorescence ratio of 1.04 ± 0.012. CTTGGTGGTG was tested, and the switch fluorescence ratio was 0.995 ± 0.019. CTTGGTTGCG was tested, and the switch fluorescence ratio was 0.999 ± 0.014. Sequence CTTGGTTGCT has a switch fluorescence ratio of 0.997 ± 0.032. Sequence CTTGGTTTAG has a switch fluorescence ratio of 1.01 ± 0.035. CTTGTAACTT was tested, and the switch fluorescence ratio was 1.01 ± 0.032. CTTGTAAGGT gave a switch fluorescence ratio of 0.976 ± 0.022. With CTTGTCAAGT the switch fluorescence ratio was 0.984 ± 0.071. For CTTGTCACCA, the switch fluorescence ratio was 0.988 ± 0.022. CTTGTCGTGC showed a switch fluorescence ratio of 0.995 ± 0.033. CTTGTGACAC was tested, and the switch fluorescence ratio was 1.02 ± 0.033. CTTGTGAGGG gave a switch fluorescence ratio of 0.985 ± 0.037. Sequence CTTGTGGCGG has a switch fluorescence ratio of 0.97 ± 0.0098. Sequence CTTGTGTGTC has a switch fluorescence ratio of 0.999 ± 0.015. For CTTTAAAAAG, the switch fluorescence ratio was 1 ± 0.059. With CTTTAACGAG the switch fluorescence ratio was 0.9976 ± 0.0043. With CTTTAACGGT the switch fluorescence ratio was 1 ± 0.026.
